The target of assay [1] is T1, FLAG-hEya3 (human Eya3, full length) (human, UniProt Q99504 1-573).
T1 construct: Eya3, human, full length; cloned as FLAG-hEya3 in pCAG; only residues 65-86 are modelled in the structure; also called full-length Eya3; FLAG-Eya3
T1 sequence (looked up): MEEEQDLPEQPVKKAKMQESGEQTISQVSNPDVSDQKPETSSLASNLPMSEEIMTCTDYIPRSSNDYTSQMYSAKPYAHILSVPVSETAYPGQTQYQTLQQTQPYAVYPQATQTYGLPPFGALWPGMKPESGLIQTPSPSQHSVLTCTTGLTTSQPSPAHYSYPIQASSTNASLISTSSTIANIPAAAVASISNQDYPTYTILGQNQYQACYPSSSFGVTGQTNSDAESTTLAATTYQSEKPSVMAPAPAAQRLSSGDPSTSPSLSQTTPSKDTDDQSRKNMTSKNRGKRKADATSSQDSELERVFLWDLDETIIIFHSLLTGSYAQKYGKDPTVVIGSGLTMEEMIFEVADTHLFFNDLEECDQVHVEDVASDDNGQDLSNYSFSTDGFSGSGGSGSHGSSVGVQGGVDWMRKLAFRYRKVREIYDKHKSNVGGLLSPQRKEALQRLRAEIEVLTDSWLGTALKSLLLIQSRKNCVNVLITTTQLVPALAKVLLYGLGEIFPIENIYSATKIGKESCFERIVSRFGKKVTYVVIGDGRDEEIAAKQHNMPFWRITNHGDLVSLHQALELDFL
As to the kind of experiment: cryo-EM structure; PP2A–B55 + Eya3: 10 μM purified PP2A–B55 incubated with 15 μM full-length Eya3; 0.1% CHAPSO added before vitrification; 3.7 Å. The note with it: both partners purified.

Assay [2] addresses T1, FLAG-hEya3 (human Eya3, full length). In words: mass photometry; proteins combined at a molar ratio of 1.5:1 in 20 mM Tris pH 8, 250 mM NaCl, 1 mM MnCl2, 0.5 mM TCEP, on ice, in the presence or absence of 25 μM B55i peptide; diluted to 100 nM before reading (Refeyn TwoMP). The note with it: both partners purified.

B1: FLAG-hB55 (B55α subunit of the PP2A–B55 holoenzyme purified from HEK293 FreeStyle cells) (natural protein, human)
chain: AGAGGGNDIQWCFSQVKGAVDDDVAEADIISTVEFNHSGELLATGDKGGRVVIFQQEQENKIQSHSRGEYNVYSTFQSHEPEFDYLKSLEIEEKINKIRWLPQKNAAQFLLSTNDKTIKLWKISERDKRPEGYNLKEEDGRYRDPTTVTTLRVPVFRPMDLMVEASPRRIFANAHTYHINSISINSDYETYLSADDLRINLWHLEITDRSFNIVDIKPANMEELTEVITAAEFHPNSCNTFVYSSSKGTIRLCDMRASALCDRHSKLFEEPEDPSNRSFFSEIISSISDVKFSHSGRYMMTRDYLSVKIWDLNMENRPVETYQVHEYLRSKLCSLYENDCIFDKFECCWNGSDSVVMTGSYNNFFRMFDRNTKRDITLEASRENNKPRTVLKPRKVCASGKRKKDEISVDSLDFNKKILHTAWHPKENIIAVATTNNLYIFQDKVN
notes: PP2A regulatory B subunit B55α, human; FLAG-hB55 in pCAG; The same chain as the first chain of m7, written alone for the contacts seen in the structures; also called FLAG-B55; B55 subunit
As to B1, the binding result in assay [1] is “binds”.

B2: His-hB55 (human PP2A regulatory subunit B55α) (natural protein, UniProt P63151 1-447, looked up)
chain: MAGAGGGNDIQWCFSQVKGAVDDDVAEADIISTVEFNHSGELLATGDKGGRVVIFQQEQENKIQSHSRGEYNVYSTFQSHEPEFDYLKSLEIEEKINKIRWLPQKNAAQFLLSTNDKTIKLWKISERDKRPEGYNLKEEDGRYRDPTTVTTLRVPVFRPMDLMVEASPRRIFANAHTYHINSISINSDYETYLSADDLRINLWHLEITDRSFNIVDIKPANMEELTEVITAAEFHPNSCNTFVYSSSKGTIRLCDMRASALCDRHSKLFEEPEDPSNRSFFSEIISSISDVKFSHSGRYMMTRDYLSVKIWDLNMENRPVETYQVHEYLRSKLCSLYENDCIFDKFECCWNGSDSVVMTGSYNNFFRMFDRNTKRDITLEASRENNKPRTVLKPRKVCASGKRKKDEISVDSLDFNKKILHTAWHPKENIIAVATTNNLYIFQDKVN
notes: PP2A regulatory B subunit B55α, human; cloned as His-hB55 in pFASTbac; Labelled on the His tag with RED-Tris-NTA dye for MST; also called His-B55; His-B55α; source: Hi5 insect cells, purified (nickel resin)
As for B2, the binding result in assay [2] is reported as “binds”.
